A value given as a limit tells only on which side of the number the result lay.

Test [1] addresses human C5aR1 with C-terminal SmBiT (hC5aR1-SmBiT) (human) (UniProt P21730).
Test [2] addresses human C3aR with C-terminal SmBiT (hC3aR) (human) (UniProt Q16581).
In test [3] the target is human C5aR1-Rluc8 (human) (UniProt P21730).
Test [4] concerns the target mouse C5aR2, purified from Sf9 cells (mC5aR2) (not stated | mouse) (UniProt P08173). The test can be described thus: cryo-EM structure.
Test [5] shares this target. Put plainly: SEC. On the technique in general: In gel filtration, larger molecules generally elute earlier.
Test [6] concerns the target T1, mouse C5aR1, purified (mC5aR1) for cryo-EM and HDX-MS (mouse, UniProt P30993 1-351).
T1 sequence: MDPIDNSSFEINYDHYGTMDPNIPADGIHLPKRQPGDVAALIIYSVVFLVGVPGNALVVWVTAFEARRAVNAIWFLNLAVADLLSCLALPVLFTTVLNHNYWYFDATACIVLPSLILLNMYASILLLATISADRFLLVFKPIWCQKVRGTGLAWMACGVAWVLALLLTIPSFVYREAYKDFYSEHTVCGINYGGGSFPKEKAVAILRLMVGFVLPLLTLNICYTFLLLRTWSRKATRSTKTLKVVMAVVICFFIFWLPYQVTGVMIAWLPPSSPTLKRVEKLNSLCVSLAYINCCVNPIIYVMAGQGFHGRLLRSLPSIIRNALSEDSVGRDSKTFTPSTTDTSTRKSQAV
The test can be described thus: cryo-EM structure.

human C5aR1-Rluc8 (human), sequence (P21730 whole entry): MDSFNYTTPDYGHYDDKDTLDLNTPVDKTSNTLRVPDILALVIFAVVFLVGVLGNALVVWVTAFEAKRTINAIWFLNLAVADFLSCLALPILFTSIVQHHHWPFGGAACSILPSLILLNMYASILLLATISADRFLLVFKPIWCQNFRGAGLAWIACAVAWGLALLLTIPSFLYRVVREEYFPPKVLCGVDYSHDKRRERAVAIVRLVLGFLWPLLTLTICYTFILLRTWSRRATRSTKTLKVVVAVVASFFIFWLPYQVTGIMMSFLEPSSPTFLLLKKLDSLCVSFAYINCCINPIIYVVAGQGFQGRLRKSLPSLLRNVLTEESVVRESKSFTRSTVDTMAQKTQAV
human C5aR1 with C-terminal SmBiT (hC5aR1-SmBiT) (human), sequence (P21730 whole entry): as above
human C3aR with C-terminal SmBiT (hC3aR) (human), sequence (Q16581 whole entry): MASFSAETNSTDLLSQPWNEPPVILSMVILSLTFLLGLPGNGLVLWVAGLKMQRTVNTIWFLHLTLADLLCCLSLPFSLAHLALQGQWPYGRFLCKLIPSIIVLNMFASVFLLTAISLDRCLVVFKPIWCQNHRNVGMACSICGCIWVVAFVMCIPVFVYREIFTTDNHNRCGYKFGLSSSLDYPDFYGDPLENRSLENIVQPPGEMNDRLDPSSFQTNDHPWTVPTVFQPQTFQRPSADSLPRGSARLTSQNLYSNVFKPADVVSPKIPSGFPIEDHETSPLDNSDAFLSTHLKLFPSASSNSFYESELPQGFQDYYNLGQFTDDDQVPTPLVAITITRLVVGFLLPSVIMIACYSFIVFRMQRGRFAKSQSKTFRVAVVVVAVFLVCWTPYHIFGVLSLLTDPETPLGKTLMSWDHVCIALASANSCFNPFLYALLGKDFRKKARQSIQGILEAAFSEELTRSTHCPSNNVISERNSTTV

Take “R8Y, [Tyr1,Tyr8]BM2020-8, C5aR2-selective peptide agonist”: the activation of C5aR1 (Figure S10D and Table S1) in test [1] is > 10 µM. The activation of C3aR (Figure S10D and Table S1) in test [2] was > 10 µM.
As for [Tyr8]BM2020-8 peptide, the efficacy at C5aR1 relative to C5a; read-out not given in test [3] worked out at 41%.
For “mouse C5aR2, purified from Sf9 cells (mC5aR2) (from UniProt P08173 2-23) (receptor)”, the stoichiometry N in test [4] and in test [5] was 2 in each case.

B1: mouse complement anaphylatoxin C5a, recombinant (mC5a) (ligand)
chain: NLHLLRQKIEEQAAKYKHSVPKKCCYDGARVNFYETCEERVARVTIGPLCIRAFNECCTIANKIRKESPHKPVQLGR
As for B1, the binding result in test [6] is “binds”.

The term stoichiometry N denotes the number of molecules, sites or subunits per partner or assembly.
